The record followed here is the DeepSol protein solubility set.

This data set in a line: soluble on expression in E. coli; label from the status in PepcDB or PDB records.
On to “MGSDKIHHHHHHMTDLGLYRHLDQMAPWNDRLQVLEVIGVSDEAPDVKTFTFRSDNQTWFRYKPGQFVTLELPTPDGPLMRTYTLSSSPSRPFSIAVTVKAQAGSIGTRWMFDHLVPGSHVKAYGPSGDFSLHSHPAAKYLFISAGSGVTPMMSMLRWLNDCAPWTDVGFVNCARRPEEIIFRKELELLGGHMPGLSLGFMIEERSSREGWYGHMGRIDAIRLPLLAPDFREREIFCCGPDPFMRAVRGMLEAAGFDMTKYHQESFAAPAVEEVPAPFVSPGEDGVTVPVEATPIRFALSVVDAECVAGQTVLQTARASGVRIPAACEFGLCGTCKVKKVSGAVEMSHNGGILDHEIDDGFILACCSKPLSALEIEA”, for which the “soluble on expression in E. coli” value was “not soluble”.
With “MPEPTPTAYPVRLDELINAIKRVHSDVLDQLSDAVLAAEHLGEIADHLIGHFVDQARRSGASWSDIGKSMGVTKQAAQKRFVPRAEATTLDSNQGFRRFTPRARNAVVAAQNAAHGAASSEITPDHLLLGVLTDPAALATALLQQQEIDIATLRTAVTLPPAVTEPPQPIPFSGPARKVLELTFREALRLGHNYIGTEHLLLALLELEDGDGPLHRSGVDKSRAEADLITTLASLTGANAAGATDAGATDAG” the entry was “soluble”.
As to “MKRILCITGTRADFGKLKPLLAYIENHPDLELHLIVTGMHMMKTYGRTYKEVTRENYQHTYLFSNQIQGEPMGAVLGNTITFISRLSDEIEPDMVMIHGDRLEALAGAAVGALSSRLVCHIEGGELSGTVDDSIRHSISKLSHIHLVANEQAVTRLVQMGEKRKHIHIIGSPDLDVMASSTLPSLEEVKEYYGLPYENYGISMFHPVTTEAHLMPQYAAQYFKALELSGQNIISIYPNNDTGTESILQELLKYQSDKFIAFPSIRFEYFLVLLKHAKFMVGNSSAGIREAPLYGVPSIDVGTRQSNRHMGKSIIHTDYETKNIFDAIQQACSLGKFEADDTFNGGDTRTSTERFAEVINNPETWNVSAQKRFIDLNL”, the “soluble on expression in E. coli” value is reported as “not soluble”.
In the case of “MFSPQAYLIFNMRKPPFDNIKVRQAVMHAFNRKLVVDNIFFGLGKISTSPFVPTEMFFDKDIPAIPFDMKKARALIKESGINPGDYTIRQLSFPYGATWDRLGEYTKQALEQLGFKVNVESTDAGGWASRTGNWDFDLTTTYSYQYGDPALGVQRLYVTSNIVKGSPFANMQGYSNPESDKLWEQAAAEVDPAKRQELYNKIQALLVAEVANGFLVDME”, the “soluble on expression in E. coli” value is reported as “not soluble”.
Regarding “MSLFINMYRQLLSLPLSALVKNNPIPANPIEELSLNIHQPIVYVLPYTSQTDFVIFRRNCLALGLPDPAEKNEINGVKLPRYVYLDEGRRIFKSKGAKDETTTIFNKYLELHRTSESLDVQLIPVSVLWGRSPGQEDKSDLPNLRLLNGIQKTFAAIWFGRDTFVRFSQAVSLRYMVVEHGSDEKIAQKLARVAKMHFAKQRISATGPRLPNRQAMFNKLLQSEAIRRAIEDEAKSKNISIEKAQKEAYKILDEIAADVSHSSLRAVDRFLRWLWNKLYSGINVQNSNRVRKLALEGHEIVYVPCHRSHIDYLLLSYVLYHQGLVPPHIAAGINLNFWPIGRMFRSWGAFFIRRTFKGNRLYSAIFREYLSELFHRGYSVEYFIEGGRSRTGRLLAPKTGMMSMTLQALQHSQTRPISIVPVYVGYEHVLEVDTYAKELRGAAKEKENAGLVLRVIKKLRNLGQGFVNFGEPITLSNYLSQHFPDWKEQNHEEKPQWFTPAVNNISKQVMININKAAAVNSMNLVGTALLSSRQRALSREQLLEQLSSYQQLLQNVPYSTDVVLPNVTPQAMLEHVLALDRIGVLIEKDNFGEIVRLERSSAVLMTYYRNNIQHLFVLPSLVASIILHYEAIQKDLLLDAIRKIYPFLQGELFLHFNEDELNVQIHQIINEFARQSVINSNDNFLSINKSKVRILQLWSAGMLEILQRYYITVTILQKQPAISRAELEKESQLVAQRLSVLHGINAPEFFDKAVFSSFIANLKEQRYFDESGYTVLDKIEELASTLSHLISTEICLTVKGTIEKSEDLSSEGHHHHHH”, the “soluble on expression in E. coli” value was “soluble”.
Consider “MDLICMYVFKGEESFGESIDVYGDYLIVKVGTEFLAVPKKSIKSVEDGRIVIGEFDEEEARELGRKWLEEKSKPVTLEELKSYGFGEEGE”, for which the “soluble on expression in E. coli” value was “not soluble”.
With “MMNEKILIVDDQYGIRILLNEVFNKEGYQTFQAANGLQALDIVTKERPDLVLLDMKIPGMDGIEILKRMKVIDENIRVIIMTAYGELDMIQESKELGALTHFAKPFDIDEIRDAVKKYLPLKSN”, the “soluble on expression in E. coli” value was “soluble”.
Consider “MSLLQTKPYTFWFITGSQHLYGEDAIEQVRQHSQTMVEKLNKIGELPYTIELKEVLTTPDAIRKMVIAANSDDDCAGMITWMHTFSPAKMWINGLKQLKKPLLHLHTQFNREIPYDDIDMDFMNLNQSAHGDREYGHIGARLNISRKVIVGHWQNNDVQERLGAWMRTAAAFVDGHHLKVARFGDNMREVAVTEGDKVEAQIQFGWSITAFGIGDLVEKMKAVSEDEVRRLFDEYQELYRLSPSILEQDEVKAAVLEQAKMELALKEFLEEGGYTAFTTNFEDLHGMKQLPGLAVQRLMAEGYGFGGEGDWKTAALLRMMKIIADGKGTSFMEDYTYHLAEGNELVLGSHMLEICPTIAANQPEIQVHPLGIGGKEDPARLVFDGADGPALNASLIDLGHRFRLVVNEVEAIKPERDMPKLPVAKVLWKCKPSLSEATEAWIHAGGAHHTVFSFEVTPEQLYDWATLADIEVVFINDKTDVLQFQQQLQWNEAFRRLFKEGHHHHHH”, for which the “soluble on expression in E. coli” value was “soluble”.
With “MNRARDWMRQAERDLEHAQKSLELGHWEWACFAAHQAAEKALKAVYFALGAEAFGHALTHLLAGLHERLNLTPELRRCALVLDRLYIPTRYPDSWEAGAPLDYYGEEEARDALLCAGEILRFGQSVLAGPGETSSGP” the entry was “soluble”; with “MATNAKPVYKRILLKLSGEALQGTEGFGIDASILDRMAQEIKELVELGIQVGVVIGGGNLFRGAGLAKAGMNRVVGDHMGMLATVMNGLAMRDALHRAYVNARLMSAIPLNGVCDNYSWAEAISLLRNNRVVILSAGTGNPFFTTDSAACLRGIEIEADVVLKATKVDGVFTADPAKDPSATMYDQLTYSEVLDKELKVMDLAAFTLARDHKLPIRVFNMNKPGALRRVVMGEKEGTLITELEHHHHHH”, “not soluble”; with “MSLRYDRAGDQHYDVASALIKSMRGSDVDAALHYLARMVEAGEDPRFIARRIVIAAAEDVGMADPSALQTAVAAMHAVAQIGMPEARIVLAQAVVHNATAPKSNAAYAGINAAIADVRAGLGGSVPAHLRDAHYAGAGKLGHGKGYVYTHDVPAGVAEQQYAPDELVGKDYYVPTDRGFENQLRERLARLRRVLRGREGHHHHHH”, “soluble”.
With “MAAKIEDMETRIEALMDVMRVPPGKKINLKKDYDPGFTGKWMTKAEAKETLARGIQMLAEMQDKLWAQNQYAVLMNLQALDAAGKDGTIKHVMSGVNPQGVDVHSFKGPSSEEMDHDYLWRNFKALPSRGRIGIFNRSYYEEVLVVRVHPEFLASQQLPPKLKDKRIWRRRFEEINNFEKYLVDNGIVVIKFFLYVSKEAQKERFLRRTQLPEKNWKFSAADIKERAHWDDYIAAYEDMFNHTSTEWAPWYIVPADHKWFTRLAVAAVLYYTMEKLNLAYPTVSEEQKQALIAAKEELEREDSGPKDKAVVKAEEEEDADPQDPASNGEVPKDESKKESKKKGSKNR” the entry was “not soluble”.
With “MKWPWWPVCVPLSKRLTLPLPSTANPVVQPSRLALACANRLFEAADNRERFLQALMTPPAYPATVLWCGEPAAALPFAALPPLPWQPPWVSRFVAGSPTGQHPLHAAGAYYCLDSSSVFAAVPLLTLPQEPSLVIDVCAAPGGKSLFAWRSLHPRYLICNETIGKRVGKLIGNLKRCRVHPVGVTSWDSEVLAAEFQGTADVVIVDAPCSGQSLLAKGQKAEGCFHPLTIRHNQRRQKRILAAATTLVRPGGWLLYSTCTFSQDENEDVAAWLMAKFPHLLPQPVPALAAYQSHLAAFPCYRLWPHQGEGAGAFTILWQHQGLEHHHHHH” the entry was “soluble”.
With “MPPRPRMLAAAITAALALGAQAVPAAAADGPAGDSTATTSRGVEIPAFYTPPSELPAADGTLIRHEPLPLALSLPGIDGPLPGRATRLMYKSTDANGEAVAVTGAYVEPAAKWRGDGPRPLVAVAPGTMGQGDQCAASMALEHPLQLNGQTVSVGYEDLSVYRLLLRGVAVVVTDYVGLGTTDRLHTYVNRVDGAHAVLDAVRAARSLDSASVTSDSRVGLFGYSQGGGATAAAAELQPSYAPDVQLAGTYAGAPPADLTEVTKAIDGSDLAGALGWSLNGFLQTEPALRPIADRYINEAGQEALKDLSTMCVGDALFGYGGDSSTDWTRTGQSISDVIRAEPALQSFLAEQRIGSTAPGSPVRVATGVSDDLVPHGQARRLAVDWCGKGGKVTYVPVLIPGVGSGLLNHFAPLLADQGNAIAWLTDRLSGEPAGSNCWSMPVQPLEHHHHHH”, the “soluble on expression in E. coli” value is recorded as “soluble”.
In the case of “FFSNAEVAERLAYPQLIEALRIGLAKPCSAPLRNCHALPAQASLLQMPVWQAGAGIGVKLVTVFPGNGARGLPAVAAVFALFDGEDGRPLALLEASELTARRTACSSALAADYLARDDARRLLVVGCGTLAAHMVRAHACVRDYRHIDIWGRDPAKAAALAARLREEGYPARAADGLRAAVEAADCVSCVTTSREALVRGAWLKPGVHLDLVGAFLPSMRETDVLAVARARVVVDTRAGALEEAGDLLQAIAEGAIGREAISTELRDLLSGAGRRGDPGEITLFKSVGYALEDLVAARRVV”, the “soluble on expression in E. coli” value is on record as “not soluble”.
On to “MQKPKLGKIKLLSAKEQVAAVLRKAILSRELVEGQEITLEGIAGMVGVSSMPVREAFQILAADGLIKVRPNKGAVVLGINEQTIREHYEIRALLESEAVAKASRPGSDISRIAQVHYAAEKALAENNSAEYSDLNQAFHMEIWNVAGNEKMKMLLCNMWNGLSMGHKVTEEEYAVISIQEHKSILQALELHDETLARQRMREHIIRSMENMLTRYVGDPSA”, for which the “soluble on expression in E. coli” value is recorded as “not soluble”.
Take “MKIKSNLKLRRIGNRHMIVEVSDSCVNLTNVYSLNGTAARLWEMVCNGEGRTAGELAEGLCKTYDVEYGRALRDVERQIEEWEKMGLLSRRGTGD”: the “soluble on expression in E. coli” value is “not soluble”.
As to “MGHHHHHHSHMRIVMKFGGVSVKDGENIYHCANLVKKFSEGNEVVVVVSAMQGVTDALLKAAHRCCSEPSAGFIKMFIADMMKRHYEAIEYAVRNDEIKAKVIAAVERLLDELEKVLLGISYLGELTRRSEDYIVSFGERLSAPIFSAALLSLGVDSVALTGGDAGIITDRNFGRAKPLPGVYTTIRNRLEPLLTIKKTIPVVTGFIGATDDGSITTLGRGGSDYTATILAAALDADEVWLWKEVDGIMTCDPKYVPNARVIPEISYQEAMELSHFGAKILHPRALEPVMRKNIPVRIKN”, the “soluble on expression in E. coli” value is recorded as “not soluble”.
Consider “MGSDKIHHHHHHMRLGFYNIQGGTGKTTIAANIGYYLSDKTKTVYVDCDIYAGCGALLFGFEDSPHTLNSYLSGASALTDIIHQFDDLSVIVADSTPNSFNTEINQKRMLELIRVLNDNYDIVLLDLPPNITEGNLLFSSLNLEEKVVNKMIVVAEDSIPGIANTMKTKELLYAIDIDCIGVIVNKFKDTVDFDEALDDIIAILPYDKKVENQWMENVPAVQMKSKFSKELSYLAEDLAEVYIKKDLAAVRALKVAKELKDMTSKRQDVEEDEF”, for which the “soluble on expression in E. coli” value is “not soluble”.
With “MAEVERQDKYLRQRNKYRFHIIPDGNCLYRAVSKTVYGDQSLHRELREQTVHYIADHLDHFSPLIEGDVGEFIIAAAQDGAWAGYPELLAMGQMLNVNIHLTTGGRLESPTVSTMIHYLGPEDSLRPSIWLSWLSNGHYDAVFDHSYPNPEYDNWCKQTQIQKKRDEELAKSMAISLSKMYIEQNACS” the entry was “soluble”; with “MRDSIMQMCELCGKLTDKLYKVIIEGSEMNVCKECAKFGKSPKTYSRLGKKTIIGKGTITTNKQVKKPIKRRRDIFDTLPMLREDYGDVIREAREKRGLSIEELAKKLKMKASTLQKFERYELEPNEKEIKILEKELKISLTESIGEETSYYGGRDEDGFTLGDFIKIKK”, “not soluble”.
